# B1: anti-AXL single domain antibody sdAb19 (VHH)
# VHH: QVQLQESGGGMVQPGGSLRLSCAASGFTFTSYDMTWLRQTPGKGPEWVSTISTGGLRTYYGNSVKGRFIISRDNTKNTLYLQMNSLKPEDTALYYCARGPFTVADPRRGQGTQVTVSS
# notes: source: E. coli WK6, periplasmic expression, purified (IMAC, SEC)
# B2: anti-AXL single domain antibody sdAb20 (VHH)
# VHH: QVQLQESGGGLVRPGGSLRLSCAASGFTFTSYDMTWLRQTPGKGPEWVSTISTGGLRTYYGNSVKGRFIISRDNTKNTLYLQMNSLKPEDTALYYCARGPFTVADPRRGQGTQVTVSS
# notes: alpaca-derived; Re-cloned into pHEN6, which encodes the C-terminal His6 tag; also called lead compound; monovalent sdAb20; source: E. coli WK6, periplasmic expression, purified (IMAC, SEC); not shown: His6, C-terminal, kept
# B3: anti-AXL single domain antibody sdAb20 (VHH)
# VHH: QVQLQESGGGLVRPGGSLRLSCAASGFTFTSYDMTWLRQTPGKGPEWVSTISTGGLRTYYGNSVKGRFIISRDNTKNTLYLQMNSLKPEDTALYYCARGPFTVADPRRGQGTQVTVSS
# notes: re-cloned into pHEN6 (C-terminal His6 tag), monomeric format; source: E. coli WK6, periplasmic expression, purified (IMAC, SEC)
# B4: anti-AXL single domain antibody sdAb25 (VHH)
# VHH: QVQLQESGGGLVQPGGSLRLSCVASGSIFSIYAMGWYRQAPGKQRELVAGISSGGSTNYADSVKGRFTISRDNAKNTVYLQMNSLKPEDTAVYYCNYDLVEAVTGEYDYWGQGTQVTVSS
# notes: as for B1
# B5: anti-AXL single domain antibody sdAb4 (VHH)
# VHH: QVQLQESGGGLVQPGGSLRLSCVASGSIFSIYAMGWYRQAPGKQRELVAGISSGGSTNYADSVKGRFTISRDNAKNTVYLQMNSLKPEDTAVYYCNYDLVKAVTGEYDYWGQGTQVTVSS
# notes: as for B1
# B6: anti-AXL single domain antibody sdAb12 (VHH)
# VHH: QVQLQESGGGLVKPGGSLRLSCVASGSIFSIYAMGWYRQAPGKQRELVAGISSGGSTNYADSVKGRFTISRDNAKNTVYLQMNSLKPEDTAVYYCNYDLVEAVTGEYDYWGQGTQVTVSS
# notes: as for B1
# B7: recombinant mouse AXL protein (receptor, UniProt Q00993 19-445, looked up)
# chain: AHKDTQTEAGSPFVGNPGNITGARGLTGTLRCELQVQGEPPEVVWLRDGQILELADNTQTQVPLGEDWQDEWKVVSQLRISALQLSDAGEYQCMVHLEGRTFVSQPGFVGLEGLPYFLEEPEDKAVPANTPFNLSCQAQGPPEPVTLLWLQDAVPLAPVTGHSSQHSLQTPGLNKTSSFSCEAHNAKGVTTSRTATITVLPQRPHHLHVVSRQPTELEVAWTPGLSGIYPLTHCNLQAVLSDDGVGIWLGKSDPPEDPLTLQVSVPPHQLRLEKLLPHTPYHIRISCSSSQGPSPWTHWLPVETTEGVPLGPPENVSAMRNGSQVLVRWQEPRVPLQGTLLGYRLAYRGQDTPEVLMDIGLTREVTLELRGDRPVANLTVSVTAYTSAGDGPWSLPVPLEPWRPGQGQPLHHLVSEPPPRAFSWPWW
# notes: AXL receptor tyrosine kinase, mouse; recombinant protein R&D Systems #854-AX; also called mouse Axl antigen; recombinant mouse antigen; source: bought: R&D Systems (#854-AX)
# Columns and labels:
# [1] = target: B7; experiment: SPR; Biacore-T200; recombinant AXL protein immobilised on CM5 chip by amine coupling (EDC/NHS); sdAbs injected at ten concentrations from 1.9 to 500 nM; 25°C; HBS (20 mM HEPES pH 7.4, 150 mM NaCl, 3.4 mM EDTA, 0.005% Tween 20); 10 µL/min; 1:1 binding model; conditions: both partners purified
# [2] = target: T1, recombinant human AXL protein (human, UniProt P30530); experiment: SPR; competition assay for blocking of hAXL and hGAS6; which partner was immobilised is not shown; conditions: both partners purified
# T1 construct: receptor tyrosine kinase AXL, human, recombinant protein from R&D Systems; also called hAXL; source: bought: R&D Systems
# [3] = target: T2, recombinant mouse AXL protein (Mus musculus, UniProt Q00993); experiment: SPR; Biacore T200; recombinant AXL immobilised on CM5 chip by amine coupling; seven serial dilutions of sdAb flowed over; 25 °C; HBS (20 mM HEPES pH 7.4, 150 mM NaCl, 3.4 mM EDTA, 0.005% Tween 20); 1:1 binding model; conditions: both partners purified
# T2 construct: receptor tyrosine kinase AXL, mouse, recombinant protein from R&D Systems; also called recombinant mouse antigen; source: bought: R&D Systems
# [4] = target: T3, AXL on AXL-overexpressing murine C1498 AML cells (Mus musculus, UniProt Q00993); experiment: flow cytometry on cells; sdAb20 or sdAb20-Fc on AXL-expressing human and murine cancer cell lines, compared with the irrelevant control R3B23 or R3B23-Fc; read-out MFI; conditions: one partner purified
# T3 construct: receptor tyrosine kinase AXL overexpressed in murine C1498 cells by lentiviral transduction; also called AXL^high C1498; source: C1498 cells, lentivirally transduced and positively selected, on cells
# [5] = target: T4, recombinant human AXL protein (Homo sapiens, UniProt P30530); experiment: SPR; Biacore-T200; recombinant AXL protein immobilised on CM5 chip by amine coupling (EDC/NHS); sdAbs injected at ten concentrations from 1.9 to 500 nM; 25°C; HBS (20 mM HEPES pH 7.4, 150 mM NaCl, 3.4 mM EDTA, 0.005% Tween 20); 10 µL/min; 1:1 binding model; conditions: both partners purified
# T4 construct: AXL receptor tyrosine kinase, human; recombinant protein R&D Systems #154-AL; also called hAXL; AXL - Homo sapiens; source: bought: R&D Systems (#154-AL)
# [111In]In-DTPA-sdAb20-Fc = target: T5, [111In]In-DTPA-sdAb20-Fc (alpaca (Vicugna pacos)); experiment: ELISA; radio-ELISA: recombinant mouse AXL coated on Lockwell C8 Maxisorp plates; serial dilution of [111In]In-DTPA-sdAb-Fc in PBS + 1% FBS; bound radioactivity by gamma counter; specific binding = total minus non-specific binding; conditions: both partners purified
# T5 construct: as the VHH of Dm1; the His6 tag of sdAb20 was replaced with the mIgG2a-Fc region; about 80 kDa; also called [111In] anti-AXL sdAb20-Fc; 111In-labeled sdAb20-Fc; source: DTPA-conjugated and 111In-labelled, purified (SEC, NAP-5); not shown: Fc (mouse IgG2a), C-terminal, kept
# T4 sequence (P30530 26-451): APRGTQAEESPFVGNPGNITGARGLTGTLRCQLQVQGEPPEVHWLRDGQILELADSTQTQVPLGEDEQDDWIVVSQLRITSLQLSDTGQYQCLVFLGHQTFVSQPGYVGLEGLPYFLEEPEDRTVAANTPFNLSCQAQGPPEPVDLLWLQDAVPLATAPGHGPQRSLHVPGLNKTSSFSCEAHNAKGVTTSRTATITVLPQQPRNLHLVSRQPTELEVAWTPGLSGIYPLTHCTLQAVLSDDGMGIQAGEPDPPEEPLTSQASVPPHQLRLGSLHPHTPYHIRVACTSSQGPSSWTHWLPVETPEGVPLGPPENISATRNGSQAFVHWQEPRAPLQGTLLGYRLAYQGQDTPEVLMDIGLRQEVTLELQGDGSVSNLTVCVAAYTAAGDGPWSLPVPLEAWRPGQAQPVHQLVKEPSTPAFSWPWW
# T1 sequence (P30530 26-451): as above
binding result [1],binding result [5],also measured,Binder
binds,,,B1
,,IC50 [2]: 0.119 µM; binding result [3]: binds; binding result [4]: binds,B2
binds,,,B3
binds,binds,,B4
binds,binds,,B5
binds,binds,,B6
,,Kd ([111In]In-DTPA-sdAb20-Fc): 0.0119 µM,B7
